Test results taken from the supplement of paper PMC9170038.

Tested on: MS2 coat protein
Experiment: apparent KD of MS2 coat protein; designed switch direction (-1 OFF switch, 1 ON switch): -1; higher = weaker reporter binding
Summary of the method: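 Designed RNA switches sharing common flanks were transcribed on Illumina chips by stalled E. coli RNA polymerase. They were titrated with SNAP-549-labelled MS2 coat protein, from 0.7 or 1.5 nM doubling to 3 µM, in Tris-HCl pH 7.5 buffer with KCl, MgCl2, BSA, DTT, tRNA and Tween-20. Titrations ran without input, with 200 uM small-molecule ligand, or with an oligonucleotide input. The apparent KD of each design is the median over its clusters, after curve-fitting of normalised cluster fluorescence.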

[1] = input ligand: microRNA oligo, concentration not stated
[2] = Eterna round: R95, input ligand: FMN 200 uM
[3] = Eterna round: R95, input ligand: microRNA oligo, concentration not stated
[4] = Eterna round: R95, input ligand: none

| Sequence | apparent KD of MS2 coat protein [1] | apparent KD of MS2 coat protein (input ligand: FMN 200 uM) | apparent KD of MS2 coat protein (input ligand: none) | apparent KD of MS2 coat protein [2] | apparent KD of MS2 coat protein [3] | apparent KD of MS2 coat protein [4] |
| --- | --- | --- | --- | --- | --- | --- |
| UCAGUUCUGCAAGGAUAUCGUCCUAGUUUGGUACGAGAAGGUGCUUUUGUUUUUUCCUUGUGUUGACAUGAGGAUCACCCAUGU [JL JR Sub53 mod] (Eterna round: R96, puzzle: Exclusion NG 1) | 28.4 nM |  |  |  |  |  |
| UCAUGUCCGGAGGAUAUGGCGCCCGUAAGGGCGCCAGAAGGCCGGACAUGAGGAUCACCCAUGUCGGCCUUCCC (Eterna round: R97, puzzle: Exclusion 6) |  | 22.1 nM | 28.4 nM |  |  |  |
| UCAUGUUUAGAGGAUAUGAUUACUCUAGAGUGAUCAGAAGGCUAGACAUGAGGAUCACCCAUGUCAGAACAUGG [Exclusion 6 - B - 17:c] (puzzle: Exclusion 6) |  |  |  | 27.5 nM | 21.5 nM | 29.1 nM |
| UCAUGUUUAGAGGAUAUGAUUACUCUAGAGUGAUCAGAAGGCUAGACAUGAGGAUCACCCAUGUCAUAACAUGA [Exclusion 6 - B - 16:a] (puzzle: Exclusion 6) |  |  |  | 56.3 nM | 85.7 nM | 127 nM |
| UCAUGUUUAGAGGAUAUGAUUACUUUUGAGUAAUCAGAAGGCUAGACAUGAGGAUCACCCAUGUCAUAACAUGA [Exclusion 6 - B - 15:d] (Eterna round: R96, puzzle: Exclusion 6) | 75.9 nM | 341 nM | 242 nM |  |  |  |
| UCAUGUUUAGAGGAUAUGAUUACUUUUGAGUAAUCAGAAGGCUAGACAUGAGGAUCACCCAUGUCAUAACAUGA [Exclusion 6 - B - 15:d] (puzzle: Exclusion 6) |  |  |  |  | 71.5 nM |  |
| UCCAAGUUUGUAGGAUAUACUCUCCUUUGGAGAGUAGAAGGACAUGAGGAUCACCCAUGUUGUAUAAAUUUGGGAUGUUCCUCG [random3] (Eterna round: R96, puzzle: Exclusion NG 1) | 51.3 nM | 122 nM | 91.8 nM |  |  |  |
| UCCACAUGAGGAUCACCCAUGUAAGGUGAGUAAAAGAAGAGGCAGGAUAUUGAAGCGACCUCGCCCAAGAAGGGCCUCACCAAA [Eternabot solution 11] (Eterna round: R96, puzzle: Exclusion NG 3) | 44.8 nM | 72.2 nM | 60.6 nM |  |  |  |
| UCCCAGCUAGGAUAUACAUGAGGAUCACCCAUGUCGAUCCACGGCACCCGAGUAUUGAGUAGAAGGAGUCAGGA [Eternabot (L2) Solution 69] (Eterna round: R97, puzzle: Exclusion 3) |  | 25.1 nM | 23.1 nM |  |  |  |
| UCCUCACAUGAGGAUCACCCAUGUUAGGAUAUCUUAUAGAGCUUGAGACAGUUCUUUAAGAGAAGGAACUGGGC [Exclusion 1 (MOD2.2 of Edarti)] (Eterna round: R97, puzzle: Exclusion 1) |  | 120 nM | 115 nM |  |  |  |
| UCCUCACAUGAGGAUCACCCAUGUUAGGAUAUUUAAUAGCGCGAAAGACAGUUCUGUAAGAGAAGGAACUGGGC [Edarti] (Eterna round: R97, puzzle: Exclusion 1) |  | 14.6 nM | 15 nM |  |  |  |
| UCCUCACUUGAGGAUCACCCAAGUCAGGAUAUUCACUGAACUGCGUAGCAGUUCGGCCGAAGAAGGGAUUCGGG [Lacequla] (Eterna round: R97, puzzle: Exclusion 1) |  | 54.8 nM | 107 nM |  |  |  |
| UCCUCGUCAGGAUAUCCACGGAAUAGCGGGAUACCGAGCGUGGAGAAGGGACAUGAGGAUCACCCAUGUAAAAU [Edlare] (puzzle: Exclusion 4) |  |  |  |  | 24.9 nM |  |
| UCCUUACUGGUCAGGAUAUACAGUCGCGGGUGGGUGUAGAAGGGACAUGAGGAUCACCCAUGUACGUUACAUCC [alecazam54h] (Eterna round: R97, puzzle: Brourd's mod of Exclusion 4) |  | 19.7 nM | 19.9 nM |  |  |  |
| UCGACGUCGUCAGGAUAUAGUUUUAAUGUCAUGCUUUUGUUCGUACAUGAGGAUCACCCAUGUGGCUAGAAGGGACUAAAGAUU [JR_ExcNG2_Sub014] (Eterna round: R96, puzzle: Exclusion NG 2) | 27 nM | 22.9 nM | 18.8 nM |  |  |  |
| UCGCUCCGUGUAGGAUAUCGCCGUUCCACUCGGCGAGAAGGACAUGAGGAUCACCCAUGUAUGUUAUUAUCACGUGUGGCGCGC [Design 53] (Eterna round: R96, puzzle: Exclusion NG 1) | 16.5 nM | 32 nM | 18.1 nM |  |  |  |
| UCGCUCCGUGUAGGAUAUCGCCGUUCUACUCGGCGAGAAGGACAUGAGGAUCACCCAUGUAUGUUAUUAUCACGUGUGGCGCGC [Design 54] (Eterna round: R96, puzzle: Exclusion NG 1) | 14.2 nM |  |  |  |  |  |
